Results: publication PMC3119050, “High-Resolution X-Ray Structure of the Trimeric Scar/WAVE-Complex Precursor Brk1” (PLoS ONE, 2011)
Residue numbers refer to the chain shown, from its start. Numbers in names are those of the source.

B1: Dictyostelium discoideum Brk1 (DdBrk1), GST tag removed (natural protein)
chain: GPLGSMSTKTNIQKDWEQREFIEDMSINIQKIVEFLNKFELSTRNKLSDLNEKLTILDRQVDYLEATFKTVQE
notes: extra amino acids left at the N-terminus after PreScission cleavage of the GST tag; Brk1 (HSPC300 ortholog) of Dictyostelium discoideum, 68 residues; Calculated molar mass 8.61 kg/mol per chain; homotrimer by sedimentation equilibrium; also called DdHSPC300; HSPC300; source: E. coli BL21 DE3, purified (glutathione sepharose, PreScission cleavage, Mono Q, Superdex-S75); not shown: GST, N-terminal, …
B2: DdBrk1_488 (DdBrk1 mutant M1C labelled with Alexa 488) (natural protein, Dictyostelium discoideum)
chain: B1 chain with M6C
modifications: Alexa 488 (Alexa-488 Fluor C5 maleimide) on the cysteine that replaces methionine 1
notes: extra amino acids left at the N-terminus after PreScission cleavage of the GST tag; Brk1 of Dictyostelium discoideum, 68 residues, first methionine replaced by cysteine; Trimer at the highest concentrations examined; dissociates in the lower nanomolar range; also called DdBrk1 M1C; DdBrk1_M1C; not shown: GST, N-terminal, cleaved

Legend:
[1] = target: the molecule itself; assay: AUC; sedimentation equilibrium, 43 µM and 171 µM DdBrk1, PBS, 10°C, 18,000 and 26,000 rpm, absorbance at 280 nm, global fit with a single species
[2] = target: the molecule itself; assay: AUC; sedimentation velocity with fluorescence detection, 8 to 800 nM DdBrk1_488, PBS, 20°C, 50,000 rpm; trimer to monomers
[3] = target: T1, Scar(1-225)/AbiA(1-149)/DdBrk1-complex (Dictyostelium discoideum, UniProt Q54NF8 1-225; Q55FT9 1-149; Q54X65 1-68); assay: SEC; 100 nM DdBrk1_488 incubated with the unlabelled complex (1.4 µM MBP-DdBrk1) for two hours on ice; Superdex-S200 10/300, PBS, 4°C, absorbance at 488 nm and 280 nm; conditions: both partners purified
T1 construct: AbiA (Abi) of Dictyostelium discoideum, residues 1-149, untagged; remnant after PreScission cleavage; Brk1 of Dictyostelium discoideum, 68 residues; In the exchange experiment the unlabelled DdBrk1 chain of this complex is replaced by DdBrk1_488; also called Scar/AbiA/DdBrk1 subcomplex; source: E. coli BL21 DE3, coexpressed, purified (glutathione sepharose, PreScission cleavage, Superdex-S75); …
T1 sequence 1: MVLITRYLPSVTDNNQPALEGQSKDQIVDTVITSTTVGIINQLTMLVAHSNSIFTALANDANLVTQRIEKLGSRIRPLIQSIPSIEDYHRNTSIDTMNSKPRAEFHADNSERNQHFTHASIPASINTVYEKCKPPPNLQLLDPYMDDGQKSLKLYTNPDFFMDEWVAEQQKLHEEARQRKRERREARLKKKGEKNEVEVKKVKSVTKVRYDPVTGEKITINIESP
T1 sequence 2: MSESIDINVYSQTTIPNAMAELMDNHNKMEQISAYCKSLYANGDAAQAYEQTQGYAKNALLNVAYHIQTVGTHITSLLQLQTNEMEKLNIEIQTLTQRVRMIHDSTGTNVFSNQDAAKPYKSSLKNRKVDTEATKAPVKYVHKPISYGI
T1 sequence 3: B1 chain

Binder | stoichiometry N [1] | stoichiometry N [2] | binding result [3]
B1 | 3 |  | 
B2 |  | 3 | binds
